Here are results for one molecule from patent publication US20210054076A1 (Chugai, published 2021).

The target in test [1] is T1, human CLDN6 (human, UniProt P56747 1-220).
T1 sequence: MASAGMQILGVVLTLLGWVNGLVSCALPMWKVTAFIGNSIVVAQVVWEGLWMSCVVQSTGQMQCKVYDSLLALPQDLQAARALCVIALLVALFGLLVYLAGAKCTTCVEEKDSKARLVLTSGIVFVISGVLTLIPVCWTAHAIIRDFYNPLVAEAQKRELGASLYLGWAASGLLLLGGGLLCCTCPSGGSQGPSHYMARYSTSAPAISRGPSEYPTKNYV
Kind of test: cell-based or functional assay.

In test [2] the target is T2, mouse CLDN6 (mouse, UniProt Q9Z262 1-219).
T2 construct: whole, on cells; also called mCLDN6; BaF3_mCLDN6
T2 sequence (looked up): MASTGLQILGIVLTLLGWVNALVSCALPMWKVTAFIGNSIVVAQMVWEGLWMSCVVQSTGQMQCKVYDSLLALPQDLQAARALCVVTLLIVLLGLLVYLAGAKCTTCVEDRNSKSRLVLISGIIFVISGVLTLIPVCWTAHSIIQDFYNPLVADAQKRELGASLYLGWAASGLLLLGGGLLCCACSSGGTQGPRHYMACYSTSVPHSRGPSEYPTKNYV
Kind of test: FACS on Ba/F3 transfectant, antibody 20 micro g/ml, FITC anti-human IgG.

In test [3] the target is T3, human CLDN4 (human, UniProt O14493 1-209).
T3 construct: whole, on cells; also called hCLDN4; BaF3_hCLDN4
T3 sequence (looked up): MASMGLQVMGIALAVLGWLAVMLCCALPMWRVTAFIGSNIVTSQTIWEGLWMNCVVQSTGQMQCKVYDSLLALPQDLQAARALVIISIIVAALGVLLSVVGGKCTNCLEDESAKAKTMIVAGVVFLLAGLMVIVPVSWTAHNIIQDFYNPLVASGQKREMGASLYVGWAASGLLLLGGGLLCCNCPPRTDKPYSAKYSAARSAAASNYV
The test is described as above.

Test [4] deals with T4, human CLDN3 (human, UniProt O15551 1-220).
T4 construct: whole, on cells; also called hCLDN3; BaF3_hCLDN3
T4 sequence (looked up): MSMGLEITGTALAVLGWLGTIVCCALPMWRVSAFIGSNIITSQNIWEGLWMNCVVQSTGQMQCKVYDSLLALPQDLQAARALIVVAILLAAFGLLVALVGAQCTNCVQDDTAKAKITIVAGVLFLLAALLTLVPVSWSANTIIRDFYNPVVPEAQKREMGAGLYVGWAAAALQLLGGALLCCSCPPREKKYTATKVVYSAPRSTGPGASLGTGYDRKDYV
The description is as above.

B1: CH04/CD3 (bispecific antibody, human IgG1, kappa, N297A)
heavy 1: EVQLQQSGPELVKPGASMKISCKASGYSFTGYTMNWVKQSHGKNLEWIGLINPYNGGTIYNQKFKGKATLTVDKSSSTAYMELLSLTSEDSAVYYCARDYGFVLDYWGQGTTLTVSSASTKGPSVFPLAPSSKSTSGGTAALGCLVKDYFPEPVTVSWNSGALTSGVHTFPAVLQSSGLYSLSSVVTVPSSSLGTQTYICNVNHKPSNTKVDKKVEPKSCDKTHTCPPCPAPELRGGPKVFLFPPKPKDTLMISRTPEVTCVVVDVSHEDPEVKFNWYVDGVEVHNAKTKPREEQYASTYRVVSVLTVLHQDWLNGKEYKCKVSNKALPAPIEKTISKAKGQPREPQVYTLPPSREEMTKNQVSLTCLVKGFYPSDIAVEWESNGQPENNYKTTPPYLDSDGSFFLYSKLTVDKSRWQQGNVFSCSVMHEALHNHYTQESLSLSP
light 1: DIVLTQSPSIMSVSPGEKVTITCSASSSVSYMHWFQQKPGTSPKLCIYSTSNLASGVPARFSGRGSGTSYSLTISRVAAEDAATYYCQQRSNYPPWTFGGGTKLEIKRTVAAPSVFIFPPSDEQLKSGTASVVCLLNNFYPREAKVQWKVDNALQSGNSQESVTEQDSKDSTYSLSSTLTLSKADYEKHKVYACEVTHQGLSSPVTKSFNRGEC
heavy 2: QVQLVESGGGVVQPGGSLRLSCAASGFTFSNAWMHWVRQAPGKGLEWVAQIKDKSQNYATYVAESVKGRFTISRADSKNSIYLQMNSLKTEDTAVYYCRYVHYAAGYGVDIWGQGTTVTVSSASTKGPSVFPLAPSSKSTSGGTAALGCLVKDYFPEPVTVSWNSGALTSGVHTFPAVLQSSGLYSLSSVVTVPSSSLGTQTYICNVNHKPSNTKVDKKVEPKSCDKTHTCPPCPAPELRGGPKVFLFPPKPKDTLMISRTPEVTCVVVDVSHEDPEVKFNWYVDGVEVHNAKTKPREEQYASTYRVVSVLTVLHQDWLNGKEYKCKVSNKALPAPIEKTISKAKGQPREPQVYTLPPSRKEMTKNQVSLTCLVKGFYPSDIAVEWESNGQPENNYKTTPPYLDSDGSFFLYSKLTVDKSRWQQGNVFSCSVMHEALHNHYTQKSLSLSP
light 2: DIVMTQSPLSLPVTPGEPASISCRSSQPLVHSNRNTYLHWYQQKPGQAPRLLIYKVSNRFSGVPDRFSGSGSGTDFTLKISRVEAEDVGVYYCGQGTQVPYTFGQGTKLEIKRTVAAPSVFIFPPSDEQLKSGTASVVCLLNNFYPREAKVQWKVDNALQSGNSQESVTEQDSKDSTYSLSSTLTLSKADYEKHKVYACEVTHQGLSSPVTKSFNRGEC
notes: Made by Fab arm exchange of the bivalent anti-CLDN6 antibody CH04 with the bivalent anti-CD3 antibody CD3-1; human IgG1 constant region; One anti-CLDN6 arm and one anti-CD3 arm; also called CLDN6-TRAB; CLDN6-targeted T-cell redirecting bispecific antibody
In the case of B1, the “EC50 (read off the curve), Jurkat/NFAT-RE luciferase reporter, target cells HuH-7” value in test [1] was ~0.08 nM. For the same molecule, the “Geo-mean value of FACS” value in test [2] amounted to 1790; in test [3] it was 34; in test [4] it was 36.
